Key:
Assay in all cases: TAP + mass spectrometry, HEK293 cells
[1] = biological target: T1, LRP5 (endogenous) (human, UniProt O75197 32-1615)
T1 construct: whole, on cells

[2] = biological target: T2, LRP6 (endogenous) (human, UniProt O75581 20-1613)
T2 construct: whole, on cells

[3] = biological target: T3, Lgr4 (endogenous, or expression construct whose tag is not stated) (human, UniProt Q9BXB1 25-951)
T3 construct: whole, on cells; Endogenous protein of HEK293T / LS174T cells in TAP-MS; also called endogenous Lgr4

T1 sequence (O75197 32-1615): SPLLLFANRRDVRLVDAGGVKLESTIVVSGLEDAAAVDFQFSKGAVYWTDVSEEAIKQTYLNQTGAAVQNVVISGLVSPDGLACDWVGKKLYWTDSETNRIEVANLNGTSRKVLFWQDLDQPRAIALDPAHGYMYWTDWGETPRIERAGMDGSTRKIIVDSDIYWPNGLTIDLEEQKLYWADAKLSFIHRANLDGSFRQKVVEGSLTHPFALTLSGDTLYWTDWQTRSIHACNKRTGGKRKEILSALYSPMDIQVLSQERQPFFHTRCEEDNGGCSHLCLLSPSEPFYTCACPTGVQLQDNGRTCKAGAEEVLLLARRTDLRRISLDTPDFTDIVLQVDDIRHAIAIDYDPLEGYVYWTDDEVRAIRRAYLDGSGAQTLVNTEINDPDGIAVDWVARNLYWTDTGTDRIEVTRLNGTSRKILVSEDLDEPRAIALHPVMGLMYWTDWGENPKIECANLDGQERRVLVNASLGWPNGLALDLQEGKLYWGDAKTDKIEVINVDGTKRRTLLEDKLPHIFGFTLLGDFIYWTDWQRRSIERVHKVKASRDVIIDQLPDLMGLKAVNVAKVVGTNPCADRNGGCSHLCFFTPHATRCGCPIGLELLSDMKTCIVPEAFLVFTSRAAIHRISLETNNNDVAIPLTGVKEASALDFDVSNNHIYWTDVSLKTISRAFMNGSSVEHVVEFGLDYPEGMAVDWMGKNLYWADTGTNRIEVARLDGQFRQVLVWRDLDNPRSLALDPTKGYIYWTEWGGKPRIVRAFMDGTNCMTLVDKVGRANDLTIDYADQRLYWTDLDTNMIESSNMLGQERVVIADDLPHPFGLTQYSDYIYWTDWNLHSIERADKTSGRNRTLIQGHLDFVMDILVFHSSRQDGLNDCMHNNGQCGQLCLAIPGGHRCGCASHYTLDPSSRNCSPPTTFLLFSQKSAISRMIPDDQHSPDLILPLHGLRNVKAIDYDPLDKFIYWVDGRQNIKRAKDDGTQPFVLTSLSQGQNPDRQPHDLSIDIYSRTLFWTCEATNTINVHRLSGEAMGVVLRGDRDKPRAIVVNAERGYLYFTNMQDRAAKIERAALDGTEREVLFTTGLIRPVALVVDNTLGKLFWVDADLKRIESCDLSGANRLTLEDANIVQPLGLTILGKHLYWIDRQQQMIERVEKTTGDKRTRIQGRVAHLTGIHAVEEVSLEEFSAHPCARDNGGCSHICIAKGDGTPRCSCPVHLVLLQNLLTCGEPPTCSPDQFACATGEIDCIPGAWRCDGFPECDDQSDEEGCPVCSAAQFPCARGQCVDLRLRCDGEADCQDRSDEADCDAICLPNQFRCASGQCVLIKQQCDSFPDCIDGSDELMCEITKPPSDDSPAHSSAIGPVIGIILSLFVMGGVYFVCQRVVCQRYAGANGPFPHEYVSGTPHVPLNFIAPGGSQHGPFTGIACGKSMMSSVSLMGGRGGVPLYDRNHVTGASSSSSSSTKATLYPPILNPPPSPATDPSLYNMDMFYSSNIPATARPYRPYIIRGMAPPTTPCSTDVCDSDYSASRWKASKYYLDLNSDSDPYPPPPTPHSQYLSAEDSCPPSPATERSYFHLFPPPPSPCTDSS
T2 sequence (O75581 20-1613): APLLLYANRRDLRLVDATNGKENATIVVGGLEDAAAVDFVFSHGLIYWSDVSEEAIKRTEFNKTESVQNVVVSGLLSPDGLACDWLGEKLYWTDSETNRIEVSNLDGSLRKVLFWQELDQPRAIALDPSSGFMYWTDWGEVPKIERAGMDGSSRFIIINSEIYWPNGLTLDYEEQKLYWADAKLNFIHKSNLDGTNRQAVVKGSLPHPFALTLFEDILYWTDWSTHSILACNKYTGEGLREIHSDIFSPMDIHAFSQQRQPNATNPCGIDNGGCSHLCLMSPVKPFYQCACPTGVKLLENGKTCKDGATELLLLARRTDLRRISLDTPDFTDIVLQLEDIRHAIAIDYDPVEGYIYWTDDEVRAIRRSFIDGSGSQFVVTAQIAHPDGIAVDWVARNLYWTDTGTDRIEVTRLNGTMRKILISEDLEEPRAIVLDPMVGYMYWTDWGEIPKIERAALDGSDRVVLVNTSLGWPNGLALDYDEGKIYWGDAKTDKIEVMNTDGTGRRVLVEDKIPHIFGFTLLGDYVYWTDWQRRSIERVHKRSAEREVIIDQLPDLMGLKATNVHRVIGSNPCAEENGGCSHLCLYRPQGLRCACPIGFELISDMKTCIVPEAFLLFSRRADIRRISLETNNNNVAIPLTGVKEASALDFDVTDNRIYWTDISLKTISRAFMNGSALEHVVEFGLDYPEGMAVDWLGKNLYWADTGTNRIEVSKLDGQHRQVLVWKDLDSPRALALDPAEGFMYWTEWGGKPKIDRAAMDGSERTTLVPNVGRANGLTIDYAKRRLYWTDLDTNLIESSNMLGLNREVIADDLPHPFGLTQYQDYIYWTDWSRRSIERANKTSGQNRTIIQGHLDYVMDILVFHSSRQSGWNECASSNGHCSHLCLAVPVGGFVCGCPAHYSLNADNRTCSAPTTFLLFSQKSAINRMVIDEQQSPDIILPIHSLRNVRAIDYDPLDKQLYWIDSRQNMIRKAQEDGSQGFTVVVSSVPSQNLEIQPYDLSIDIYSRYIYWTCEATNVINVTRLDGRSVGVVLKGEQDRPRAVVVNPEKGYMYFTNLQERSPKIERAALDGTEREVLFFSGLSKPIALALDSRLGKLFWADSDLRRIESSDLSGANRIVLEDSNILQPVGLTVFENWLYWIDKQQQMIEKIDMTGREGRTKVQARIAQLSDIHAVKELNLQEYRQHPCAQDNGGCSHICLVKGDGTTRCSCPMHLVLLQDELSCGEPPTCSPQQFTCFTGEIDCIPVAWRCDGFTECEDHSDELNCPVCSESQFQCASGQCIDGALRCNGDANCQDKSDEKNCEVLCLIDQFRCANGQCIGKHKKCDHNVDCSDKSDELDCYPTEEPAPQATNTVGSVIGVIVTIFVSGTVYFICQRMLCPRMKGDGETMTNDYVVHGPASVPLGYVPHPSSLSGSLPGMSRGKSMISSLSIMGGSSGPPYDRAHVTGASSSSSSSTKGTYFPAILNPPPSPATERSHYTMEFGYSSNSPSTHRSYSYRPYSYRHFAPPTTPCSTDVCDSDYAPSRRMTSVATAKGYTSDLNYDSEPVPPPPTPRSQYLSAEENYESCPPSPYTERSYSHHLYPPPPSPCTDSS

binding result [1] | binding result [2] | binding result [3] | Binder
no binding | no binding | – | FBXO18 (other, not shown: small tags and cut ends, TAP-MS bait) MRRFKRKHLTAIDCQHLARSHLAVTQPFGQRWTNRDPNHGLYPKPRTKRGSRGQGSQRCIPEFFLAGKQPCTNDMAKSNSVGQDSCQDSEGDMIFPAESSCALPQEGSAGPGSPGSAPPSRKRSWSSEEESNQATGTSRWDGVSKKAPRHHLSVPCTRPREARQEAEDSTSRLSAESGETDQDAGDVGPDPIPDSYYGLLGTLPCQEALSHICSLPSEVLRHVFAFLPVEDLYWNLSLVCHLWREIISDPLFIPWKKLYHRYLMNEEQAVSKVDGILSNCGIEKESDLCVLNLIRYTATTKCSPSVDPERVLWSLRDHPLLPEAEACVRQHLPDLYAAAGGVNIWALVAAVVLLSSSVNDIQRLLFCLRRPSSTVTMPDVTETLYCIAVLLYAMREKGINISNRIHYNIFYCLYLQENSCTQATKVKEEPSVWPGKKTIQLTHEQQLILNHKMEPLQVVKIMAFAGTGKTSTLVKYAEKWSQSRFLYVTFNKSIAKQAERVFPSNVICKTFHSMAYGHIGRKYQSKKKLNLFKLTPFMVNSVLAEGKGGFIRAKLVCKTLENFFASADEELTIDHVPIWCKNSQGQRVMVEQSEKLNGVLEASRLWDNMRKLGECTEEAHQMTHDGYLKLWQLSKPSLASFDAIFVDEAQDCTPAIMNIVLSQPCGKIFVGDPHQQIYTFRGAVNALFTVPHTHVFYLTQSFRFGVEIAYVGATILDVCKRVRKKTLVGGNHQSGIRGDAKGQVALLSRTNANVFDEAVRVTEGEFPSRIHLIGGIKSFGLDRIIDIWILLQPEEERRKQNLVIKDKFIRRWVHKEGFSGFKRYVTAAEDKELEAKIAVVEKYNIRIPELVQRIEKCHIEDLDFAEYILGTVHKAKGLEFDTVHVLDDFVKVPCARHNLPQLPHFRVESFSEDEWNLLYVAVTRAKKRLIMTKSLENILTLAGEYFLQAELTSNVLKTGVVRCCVGQCNNAIPVDTVLTMKKLPITYSNRKENKGGYLCHSCAEQRIGPLAFLTASPEQVRAMERTVENIVLPRHEALLFLVF
no binding | no binding | – | USP47 (enzyme, not shown: small tags and cut ends, TAP-MS bait) MVPGEENQLVPKEDVFWRCRQNIFDEMKKKFLQIENAAEEPRVLCIIQDTTNSKTVNERITLNLPASTPVRKLFEDVANKVGYINGTFDLVWGNGINTADMAPLDHTSDKSLLDANFEPGKKNFLHLTDKDGEQPQILLEDSSAGEDSVHDRFIGPLPREGSGGSTSDYVSQSYSYSSILNKSETGYVGLVNQAMTCYLNSLLQTLFMTPEFRNALYKWEFEESEEDPVTSIPYQLQRLFVLLQTSKKRAIETTDVTRSFGWDSSEAWQQHDVQELCRVMFDALEQKWKQTEQADLINELYQGKLKDYVRCLECGYEGWRIDTYLDIPLVIRPYGSSQAFASVEEALHAFIQPEILDGPNQYFCERCKKKCDARKGLRFLHFPYLLTLQLKRFDFDYTTMHRIKLNDRMTFPEELDMSTFIDVEDEKSPQTESCTDSGAENEGSCHSDQMSNDFSNDDGVDEGICLETNSGTEKISKSGLEKNSLIYELFSVMVHSGSAAGGHYYACIKSFSDEQWYSFNDQHVSRITQEDIKKTHGGSSGSRGYYSSAFASSTNAYMLIYRLKDPARNAKFLEVDEYPEHIKNLVQKERELEEQEKRQREIERNTCKIKLFCLHPTKQVMMENKLEVHKDKTLKEAVEMAYKMMDLEEVIPLDCCRLVKYDEFHDYLERSYEGEEDTPMGLLLGGVKSTYMFDLLLETRKPDQVFQSYKPGEVMVKVHVVDLKAESVAAPITVRAYLNQTVTEFKQLISKAIHLPAETMRIVLERCYNDLRLLSVSSKTLKAEGFFRSNKVFVESSETLDYQMAFADSHLWKLLDRHANTIRLFVLLPEQSPVSYSKRTAYQKAGGDSGNVDDDCERVKGPVGSLKSVEAILEESTEKLKSLSLQQQQDGDNGDSSKSTETSDFENIESPLNERDSSASVDNRELEQHIQTSDPENFQSEERSDSDVNNDRSTSSVDSDILSSSHSSDTLCNADNAQIPLANGLDSHSITSSRRTKANEGKKETWDTAEEDSGTDSEYDESGKSRGEMQYMYFKAEPYAADEGSGEGHKWLMVHVDKRITLAAFKQHLEPFVGVLSSHFKVFRVYASNQEFESVRLNETLSSFSDDNKITIRLGRALKKGEYRVKVYQLLVNEQEPCKFLLDAVFAKGMTVRQSKEELIPQLREQCGLELSIDRFRLRKKTWKNPGTVFLDYHIYEEDINISSNWEVFLEVLDGVEKMKSMSQLAVLSRRWKPSEMKLDPFQEVVLESSSVDELREKLSEISGIPLDDIEFAKGRGTFPCDISVLDIHQDLDWNPKVSTLNVWPLYICDDGAVIFYRDKTEELMELTDEQRNELMKKESSRLQKTGHRVTYSPRKEKALKIYLDGAPNKDLTQD
no binding | – | – | RNF43 (other, not shown: small tags and cut ends, TAP-MS bait) GFGRTGLVLAAAVESERSAEQKAIIRVIPLKMDPTGKLNLTLEGVFAGVAEITPAEGKLMQSHPLYLCNASDDDNLEPGFISIVKLESPRRAPRPCLSLASKARMAGERGASAVLFDITEDRAAAEQLQQPLGLTWPVVLIWGNDAEKLMEFVYKNQKAHVRIELKEPPAWPDYDVWILMTVVGTIFVIILASVLRIRCRPRHSRPDPLQQRTAWAISQLATRRYQASCRQARGEWPDSGSSCSSAPVCAICLEEFSEGQELRVISCLHEFHRNCVDPWLHQHRTCPLCMFNITEGDSFSQSLGPSRSYQEPGRRLHLIRQHPGHAHYHLPAAYLLGPSRSAVARPPRPGPFLPSQEPGMGPRHHRFPRAAHPRAPGEQQRLAGAQHPYAQGWGLSHLQSTSQHPAACPVPLRRARPPDSSGSGESYCTERSGYLADGPASDSSSGPCHGSSSDSVVNCTDISLQGVHGSSSTFCSSLSSDFDPLVYCSPKGDPQRVDMQPSVTSRPRSLDSVVPTGETQVSSHVHYHRHRHHHYKKRFQWHGRKPGPETGVPQSRPPIPRTQPQPEPPSPDQQVTRSNSAAPSGRLSNPQCPRALPEPAPGPVDASSICPSTSSLFNLQKSSLSARHPQRKRRGGPSEPTPGSRPQDATVHPACQIFPHYTPSVAYPWSPEAHPLICGPPGLDKRLLPETPGPCYSNSQPVWLCLTPRQPLEPHPPGEGPSEWSSDTAEGRPCPYPHCQVLSAQPGSEEELEELCEQAV
no binding | no binding | no binding | FBXO31 (other, not shown: small tags and cut ends, TAP-MS bait) MAVCARLCGVGPSRGCRRRQQRRGPAETAAADSEPDTDPEEERIEASAGVGGGLCAGPSPPPPRCSLLELPPELLVEIFASLPGTDLPSLAQVCTKFRRILHTDTIWRRRCREEYGVCENLRKLEITGVSCRDVYAKLLHRYRHILGLWQPDIGPYGGLLNVVVDGLFIIGWMYLPPHDPHVDDPMRFKPLFRIHLMERKAATVECMYGHKGPHHGHIQIVKKDEFSTKCNQTDHHRMSGGRQEEFRTWLREEWGRTLEDIFHEHMQELILMKFIYTSQYDNCLTYRRIYLPPSRPDDLIKPGLFKGTYGSHGLEIVMLSFHGRRARGTKITGDPNIPAGQQTVEIDLRHRIQLPDLENQRNFNELSRIVLEVRERVRQEQQEGGHEAGEGRGRQGPRESQPSPAQPRAEAPSKGPDGTPGEDGGEPGDAVAAAEQPAQCGQGQPFVLPVGVSSRNEDYPRTCRMCFYGTGLIAGHGFTSPERTPGVFILFDEDRFGFVWLELKSFSLYSRVQATFRNADAPSPQAFDEMLKNIQSLTS
no binding | no binding | no binding | FBXO3 (other, not shown: small tags and cut ends, TAP-MS bait) MAAMETETAPLTLESLPTDPLLLILSFLDYRDLINCCYVSRRLSQLSSHDPLWRRHCKKYWLISEEEKTQKNQCWKSLFIDTYSDVGRYIDHYAAIKKAWDDLKKYLEPRCPRMVLSLKEGAREEDLDAVEAQIGCKLPDDYRCSYRIHNGQKLVVPGLLGSMALSNHYRSEDLLDVDTAAGGFQQRQGLKYCLPLTFCIHTGLSQYIAVEAAEGRNKNEVFYQCPDQMARNPAAIDMFIIGATFTDWFTSYVKNVVSGGFPIIRDQIFRYVHDPECVATTGDITVSVSTSFLPELSSVHPPHYFFTYRIRIEMSKDALPEKACQLDSRYWRITNAKGDVEEVQGPGVVGEFPIISPGRVYEYTSCTTFSTTSGYMEGYYTFHFLYFKDKIFNVAIPRFHMACPTFRVSIARLEMGPDEYEEMEEEEEEEEEEDEDDDSADMDESDEDDEEERRRRVFDVPIRRRRCSRLF
no binding | no binding | – | PER2 (other, not shown: small tags and cut ends, TAP-MS bait) MNGYAEFPPSPSNPTKEPVEPQPSQVPLQEDVDMSSGSSGHETNENCSTGRDSQGSDCDDSGKELGMLVEPPDARQSPDTFSLMMAKSEHNPSTSGCSSDQSSKVDTHKELIKTLKELKVHLPADKKAKGKASTLATLKYALRSVKQVKANEEYYQLLMSSEGHPCGADVPSYTVEEMESVTSEHIVKNADMFAVAVSLVSGKILYISDQVASIFHCKRDAFSDAKFVEFLAPHDVGVFHSFTSPYKLPLWSMCSGADSFTQECMEEKSFFCRVSVRKSHENEIRYHPFRMTPYLVKVRDQQGAESQLCCLLLAERVHSGYEAPRIPPEKRIFTTTHTPNCLFQDVDERAVPLLGYLPQDLIETPVLVQLHPSDRPLMLAIHKKILQSGGQPFDYSPIRFRARNGEYITLDTSWSSFINPWSRKISFIIGRHKVRVGPLNEDVFAAHPCTEEKALHPSIQELTEQIHRLLLQPVPHSGSSGYGSLGSNGSHEHLMSQTSSSDSNGHEDSRRRRAEICKNGNKTKNRSHYSHESGEQKKKSVTEMQTNPPAEKKAVPAMEKDSLGVSFPEELACKNQPTCSYQQISCLDSVIRYLESCNEAATLKRKCEFPANVPALRSSDKRKATVSPGPHAGEAEPPSRVNSRTGVGTHLTSLALPGKAESVASLTSQCSYSSTIVHVGDKKPQPELEMVEDAASGPESLDCLAGPALACGLSQEKEPFKKLGLTKEVLAAHTQKEEQSFLQKFKEIRKLSIFQSHCHYYLQERSKGQPSERTAPGLRNTSGIDSPWKKTGKNRKLKSKRVKPRDSSESTGSGGPVSARPPLVGLNATAWSPSDTSQSSCPAVPFPAPVPAAYSLPVFPAPGTVAAPPAPPHASFTVPAVPVDLQHQFAVQPPPFPAPLAPVMAFMLPSYSFPSGTPNLPQAFFPSQPQFPSHPTLTSEMASASQPEFPSRTSIPRQPCACPATRATPPSAMGRASPPLFQSRSSSPLQLNLLQLEEAPEGGTGAMGTTGATETAAVGADCKPGTSRDQQPKAPLTRDEPSDTQNSDALSTSSGLLNLLLNEDLCSASGSAASESLGSGSLGCDASPSGAGSSDTSHTSKYFGSIDSSENNHKAKMNTGMEESEHFIKCVLQDPIWLLMADADSSVMMTYQLPSRNLEAVLKEDREKLKLLQKLQPRFTESQKQELREVHQWMQTGGLPAAIDVAECVYCENKEKGNICIPYEEDIPSLGLSEVSDTKEDENGSPLNHRIEEQT
